The data set is described as follows: soluble on expression in E. coli; label from the status in PepcDB or PDB records.
Turning to “MSLSTDTAPAQTMHAGRLIARRLKASGIDTVFTLSGGHLFSIYDGCREEGIRLIDTRHEQTAAFAAEGWSKVTRVPGVAALTAGPGITNGMSAMAAAQQNQSPLVVLGGRAPALRWGMGSLQEIDHVPFVAPVARFAATAQSAENAGLLVDQALQAAVSAPSGVAFVDFPMDHAFSMSSDNGRPGALTELPAGPTPAGDALDRAAGLLSTAQRPVIMAGTNVWWGHAEAALLRLVEERHIPVLMNGMARGVVPADHRLAFSRARSKALGEADVALIVGVPMDFRLGFGGVFGSTTQLIVADRVEPAREHPRPVAAGLYGDLTATLSALAGSGGTDHQGWIEELATAETMARDLEKAELVDDRIPLHPMRVYAELAALLERDALVVIDAGDFGSYAGRMIDSYLPGCWLDSGPFGCLGSGPGYALAAKLARPQRQVVLLQGDGAFGFSGMEWDTLVRHNVAVVSVIGNNGIWGLEKHPMEALYGYSVVAELRPGTRYDEVVRALGGHGELVSVPAELRPALERAFASGLPAVVNVLTDPSVAYPRRSNEGHHHHHH”, the “soluble on expression in E. coli” value was “not soluble”. Turning to “MSLSTPSKAMAAMEFNTTSVNKSSAIDSNNTKKEQLSDVNDISFTDHGYYIIPSLDTLNGMPLVELRSVNGLVVGHKDYGKVEFLEPVDLVNVPLNSICDKLIHFEPKTCILYPNSPIKPKKGEGMNVPAKITCFDCFPINKSTREPILDANSTLLKKHIDKLKKVPGTKFVSYEEKTGKYVFTVDEPILEGHHHHHH”, the “soluble on expression in E. coli” value was “soluble”.

On to “MSLSVADIAYVVFNHVDLLEAERFYTDFGLTVAYRNEFEVAFRPAMERSYCYVARKADKPGLVSIGLSAASQEDLVVAAQFPEASPIQAIERPGGGQVVRLTSPDGVNFELVHGIDVYPARPVRDALSINTGIVKTRHGQWQRPELEPASILRLGHVALLTGDFKTNAQWLRSRFGFMPSDVLFADAPENQVGAFFHCTGGNPWTDHHTLALFPSDGSRMHHCSFEIQDLDAQFLGNKWLASRGWKPGWGVGRHILGSQIFDYWFDPAGNLVEHFTDGDLIQAGAAPGMHPLDDDALAMWGPPLTASKFVAMAAREGHHHHHH”, for which the “soluble on expression in E. coli” value is on record as “soluble”. Take “MSLSVKRVLRNTIRKEKEENRVTEPLTETPELSAKYAWFFDLDGTLAEIKPHPDQVVVPDTILQGLQLLATASDGALALISGRSMVELDALAKPYRFPLAGVHGAERRDINGKTHIVHLPDAIARDISVQLHTVIAQYPGAELEAKGMAFALHYRQAPQHEDALMTLAQRITQIWPQMALQQGKCVVEIKPKGTSKGEAIAAFMQEAPFIGRTPVFLGDDLTDESGFAVVNRLGGMSVKIGTGATQASWRLAGVPDVWSWLEMITTALQQKRENNRSDDYESFSRSIEGHHHHHH”: the “soluble on expression in E. coli” value is given as “soluble”. Turning to “MSLSVLNAKECVSPITRSVKYHQQSAEIRALQLQSYKMAKMALDNNLKLVKDKKPAVILDLDETVLNTFDYAGYLIKNCIKYTPETWDKFEKEGSLTLIPGALDFLEYANSKGVKIFYISNRTQKNKAFTLKTLKSFKLPQVSEESVLLKEKGKPKAVRRELVAKDYAIVLQVGDTLHDFDAIFAKDAKNSQEQRAKVLQNAQKFGTEWIILPNSLYGTWEDEPIKAWQNKKEGHHHHHH”, the “soluble on expression in E. coli” value is “soluble”. “MSLSVPAAAPEDSVISAEETTTGSAVTNVQFSNEQVITENGKYKVSKLAPSLSFLPSNVELCCSVDAKSGYALCCDTDNVYVWPFLSSETHPSFVRIPLHDEEYESWSRPPLCCFTWPSVLERDLKSSPGLFLVNSRSGDIQFYEDVDTVSQVASFLTQTKRHKSVLKLRDGEYVENLINAEPAGILLSTNYGRVEFCTIRDANGKPFVSLKQTIIKCQVGIFSSMSKSKRVVSLKLGEISGKGERIVSILTQGGRYQVWNLSSVGNCYKKIDLNVQSEISQAVLEHFPLATSTLKLLDCHPLSGDSDAYLFLSFLAESNETHYLLSTIIVDEDTNSFAIFSTYRLNTYTRPLSDEFAPRLIVPTAYTKEHLPITSVYTLFSDAAVLTQTSSKLDSNYPFKRKWEDIIRFNKDMKVLGYDCNSSSLYITDGRTCALKLETFEKYENSDFQEIRFIKSHVDQYVYFGGQSTDEGHHHHHH”: the “soluble on expression in E. coli” value is on record as “soluble”.

Consider “MSLSVRFAGMATCVPKRVVSNLTDCKPQIRPERERLVRNIGIELRRLTQEWQCFSDLAFDAASKLIESLEWKLEEIDALIVVTQSPDYLAPATAIILQDRLGLPHTTLAFDVNLGCSGYPFGLHLLGSLISAGGIKKGLVLVGDSGAQLNDPIFSDAGTATAMEFCADAPPMYFDLNSDGSGHKAIILPVGGHREPVGIQHLVPFRENENDHWHRAIDLQLDGTAVLSFSTQRVPPAVEKLLEYANASKDEVDYFIFHQANRMINETIRKKLALPVEKVPSTLRDFGNTSGASLPVTMTARINKQLEEGSKRLVLSGFGIGLSWGTCLVDIQGAKFPDLIESEGHHHHHH”, for which the “soluble on expression in E. coli” value is given as “not soluble”.

Turning to “MSLSVTRENFDEWMVPVYVPAPFIPVRGEGSRLWDQQGKEYIDFAGGIAVNALGHAHPALREALNEQANRFWHIGNGYTNEPALRLAKKLIDATFAERVFFCNSGAEANEAALKLARKYAHDRVGNHKSGIVAFKNAFHGRTLFTVSAGGQPTYSQDFAPLPPDIRHAAYNDLNSASALIDDNTCAVIVEPVQGEGGVIPATKAFLQGLRELCDRHQALLIFDEVQTGVGRTGELYAYMHYGVTPDILTTAKALGGGFPIGAMLTTQDYASVMTPGTHGTTYGGNPLATAVAGKVLDIINTPEMQNGVRQRHDAFIERLNTLNVRFGMFSEIRGLGLLLGCVLQTEFAGKAKLIAQEAAKAGVMVLIAGGDVVRFAPALNVSDEEIATGLDRFALACERLQTGGVPCG”, the “soluble on expression in E. coli” value is recorded as “not soluble”. “MSLSYGVKLHVWGERALFTRPEMKVERVSYDIITPSAARGILEAIHWKPAIRWMVDSIQVLKPIRFESIRRNEVGGKLSAASVSKAIKAGRTDTLVSYVEEDRQQRAATLLRDVGYVIAAHFELTDKAGADDNVGKHLDIFNRRARRGQCFQAPCLGTREFPASFALIEDDAAMPAADATLAGERDLGWMLHDIDFADGMTPRFFRARMVDGQVEVPAPENGGVRAEGHHHHHH”: the “soluble on expression in E. coli” value is listed as “soluble”. The entry for “MSLSYLPGTTFEGQWESLYFGNNIKERLYSYATISLKIARFKQTGDSNQEDITTLITNNKLLLVHGPPGTGKTTLCKALCQKLSVRREFSDGSDTIDTNYKGIIIELSCARIFSKWFGESSKNISIVFKDIEELLKVNEGRGIFICLLIDEVEAIASSRTNLSSRNESTDGIRVVNTLLTQLDRLKKYHNFLALATSNLLDSLDDAFVDRADGVFYVGNPTAEGILHILKVCIEEMITSGIILFHARSTGVKFFNKYQDILRKIAIKCSVCFFLLFYFYDSFSFFPSEGHHHHHH” is “soluble”.

As to “MSLTATAPCPYACGLCSLHENHSALVNIVVTNRCDLSCFYCFFYAERAGYIYEPSIEQIKFMVRQVARQRQGSDVHVNIQITGGEPTVREDLVDVVKAIREAGAHYIQLNTNGINVARRYLDNPPGAIDYVRSLREAGVSVVYMSFDGVTPKVNWKNHYEAPFALKAFQEGGLDNVVLVPTVIRTINDHEVGDIIRFAGKHIDVVRGVNFQPVSLTGMMRKHERERMRITIPDVIKRIEEQTDGQIPMDAWYPVPVVAKFVKAIDALTGKLYDTLSNHPACGSATYVFALERDRYGVPRRFLPITEVIDVEGFIEFLDEERIKLEHNSGRLSRLKVAAEIVWRARRFVDFDREGHHHHHH”, the “soluble on expression in E. coli” value is listed as “not soluble”.
